In patent US6001575 one finds GluR1 Clusters (synaptic AMPA receptor clusters in transfected spinal cord neurons) (GluR1 Clusters) data, which are given here for three substances.

The assay addresses GRIP (full length, 1112 amino acids, 130 kDa protein) (rat).
“myc-tagged GluR1C (C-terminal 50 amino acids of the GluR1 subunit, transfected into neurons) (receptor)”: the GluR1 Clusters (synaptic AMPA receptor clusters in transfected spinal cord neurons) (GluR1 Clusters) amounted to 3.6.

“myc-tagged GluR2C (C-terminal 50 amino acids of the GluR2 subunit, transfected into neurons) (from UniProt P19491) (receptor)” showed a GluR1 Clusters (synaptic AMPA receptor clusters in transfected spinal cord neurons) (GluR1 Clusters) of 1.2.

In turn, “myc-tagged GluR2C Δ7 (GluR2 C-terminus lacking the last 7 amino acids, transfected into neurons) (from UniProt P19491) (receptor)” showed a GluR1 Clusters (synaptic AMPA receptor clusters in transfected spinal cord neurons) (GluR1 Clusters) of 2.9.
